Test results from the supplement of paper PMC10065799, “High-throughput profiling of sequence recognition by tyrosine kinases and SH2 domains using bacterial peptide display” (eLife, 2023).

Experiments:
[1] = system: AncSZ; assay: phosphorylation enrichment, bacterial display (enrichment ratio); higher = better substrate or ligand; peptides without Tyr show the background
[2] = biological target: EPHB1 (UniProt P54762); assay: as above
[3] = biological target: EPHB2 (UniProt P29323); assay: as above
Sequence of EPHB2 (P29323 whole entry, looked up): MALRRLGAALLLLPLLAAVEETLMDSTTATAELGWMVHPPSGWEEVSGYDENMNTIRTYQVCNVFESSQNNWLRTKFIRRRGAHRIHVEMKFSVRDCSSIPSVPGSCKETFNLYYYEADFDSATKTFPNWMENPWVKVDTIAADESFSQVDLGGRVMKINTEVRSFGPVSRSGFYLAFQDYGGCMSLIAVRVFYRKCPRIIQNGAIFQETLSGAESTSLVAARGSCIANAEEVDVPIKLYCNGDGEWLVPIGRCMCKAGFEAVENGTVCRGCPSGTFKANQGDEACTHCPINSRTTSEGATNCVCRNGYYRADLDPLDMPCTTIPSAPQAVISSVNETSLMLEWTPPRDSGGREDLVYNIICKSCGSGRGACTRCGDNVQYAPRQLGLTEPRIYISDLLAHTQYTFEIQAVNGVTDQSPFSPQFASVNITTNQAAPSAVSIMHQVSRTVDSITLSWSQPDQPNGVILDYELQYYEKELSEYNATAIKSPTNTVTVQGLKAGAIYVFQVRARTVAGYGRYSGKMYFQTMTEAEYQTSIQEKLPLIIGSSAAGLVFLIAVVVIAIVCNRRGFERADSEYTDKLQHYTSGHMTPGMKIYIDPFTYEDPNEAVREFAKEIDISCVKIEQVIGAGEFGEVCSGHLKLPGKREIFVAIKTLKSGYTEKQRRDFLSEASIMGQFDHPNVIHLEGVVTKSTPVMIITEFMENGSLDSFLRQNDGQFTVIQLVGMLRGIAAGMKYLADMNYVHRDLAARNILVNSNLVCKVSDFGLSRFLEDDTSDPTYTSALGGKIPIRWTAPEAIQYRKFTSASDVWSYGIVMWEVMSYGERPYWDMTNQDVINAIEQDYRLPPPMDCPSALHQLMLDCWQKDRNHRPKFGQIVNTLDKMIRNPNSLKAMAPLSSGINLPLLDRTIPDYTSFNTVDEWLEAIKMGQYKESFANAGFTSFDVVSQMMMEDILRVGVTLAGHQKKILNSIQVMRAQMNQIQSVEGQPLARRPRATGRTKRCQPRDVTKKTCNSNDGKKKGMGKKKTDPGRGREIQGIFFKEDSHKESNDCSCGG

[4] = biological target: FGFR1 (UniProt P11362); assay: as above
[5] = biological target: FGFR3 (UniProt P22607); assay: as above
Sequence of FGFR3 (P22607 whole entry, looked up): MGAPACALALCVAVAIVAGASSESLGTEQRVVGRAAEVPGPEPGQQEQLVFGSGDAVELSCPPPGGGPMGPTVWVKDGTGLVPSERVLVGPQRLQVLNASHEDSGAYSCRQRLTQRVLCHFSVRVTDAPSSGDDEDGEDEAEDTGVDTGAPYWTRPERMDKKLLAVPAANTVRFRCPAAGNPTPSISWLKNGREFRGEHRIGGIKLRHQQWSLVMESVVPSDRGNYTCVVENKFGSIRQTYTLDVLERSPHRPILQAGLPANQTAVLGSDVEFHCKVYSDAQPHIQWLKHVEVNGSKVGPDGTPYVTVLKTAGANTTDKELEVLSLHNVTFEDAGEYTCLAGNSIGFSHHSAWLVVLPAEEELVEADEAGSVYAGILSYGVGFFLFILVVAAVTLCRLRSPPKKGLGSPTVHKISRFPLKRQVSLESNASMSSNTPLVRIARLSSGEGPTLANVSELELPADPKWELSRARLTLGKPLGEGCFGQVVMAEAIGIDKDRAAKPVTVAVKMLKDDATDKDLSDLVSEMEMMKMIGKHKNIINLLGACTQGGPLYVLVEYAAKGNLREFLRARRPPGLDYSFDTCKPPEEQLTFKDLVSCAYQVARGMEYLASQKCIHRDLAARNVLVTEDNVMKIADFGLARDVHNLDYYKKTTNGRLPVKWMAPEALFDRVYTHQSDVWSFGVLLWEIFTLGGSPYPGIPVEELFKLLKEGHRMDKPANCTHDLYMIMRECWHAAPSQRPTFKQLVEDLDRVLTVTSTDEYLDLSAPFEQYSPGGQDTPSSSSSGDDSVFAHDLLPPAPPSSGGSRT

[6] = system: Fer (mouse); assay: as above
[7] = biological target: Fes (UniProt P07332); assay: as above
Sequence of Fes (P07332 whole entry, looked up): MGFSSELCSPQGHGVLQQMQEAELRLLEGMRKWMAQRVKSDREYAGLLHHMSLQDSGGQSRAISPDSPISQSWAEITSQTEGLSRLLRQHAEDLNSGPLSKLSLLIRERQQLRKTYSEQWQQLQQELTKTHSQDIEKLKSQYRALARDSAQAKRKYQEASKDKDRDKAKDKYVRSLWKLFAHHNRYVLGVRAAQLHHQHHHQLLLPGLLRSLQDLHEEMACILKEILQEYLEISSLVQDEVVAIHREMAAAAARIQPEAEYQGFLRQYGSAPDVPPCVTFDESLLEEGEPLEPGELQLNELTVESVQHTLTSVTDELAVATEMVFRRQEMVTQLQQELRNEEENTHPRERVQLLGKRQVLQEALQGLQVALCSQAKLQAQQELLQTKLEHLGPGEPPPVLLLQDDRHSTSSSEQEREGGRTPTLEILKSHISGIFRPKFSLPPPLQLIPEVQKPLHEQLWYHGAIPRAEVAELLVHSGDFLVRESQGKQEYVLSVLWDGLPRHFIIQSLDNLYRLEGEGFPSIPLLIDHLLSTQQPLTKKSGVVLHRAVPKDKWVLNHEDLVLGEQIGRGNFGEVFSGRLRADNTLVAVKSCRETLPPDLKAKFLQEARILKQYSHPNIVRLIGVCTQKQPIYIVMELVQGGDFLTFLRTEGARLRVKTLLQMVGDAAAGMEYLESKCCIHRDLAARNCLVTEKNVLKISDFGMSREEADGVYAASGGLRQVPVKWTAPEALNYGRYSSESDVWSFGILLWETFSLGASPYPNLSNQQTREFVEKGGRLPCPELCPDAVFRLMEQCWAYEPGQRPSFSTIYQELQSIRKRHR

[8] = biological target: Fyn (UniProt P06241); assay: as above
Sequence of Fyn (P06241 whole entry, looked up): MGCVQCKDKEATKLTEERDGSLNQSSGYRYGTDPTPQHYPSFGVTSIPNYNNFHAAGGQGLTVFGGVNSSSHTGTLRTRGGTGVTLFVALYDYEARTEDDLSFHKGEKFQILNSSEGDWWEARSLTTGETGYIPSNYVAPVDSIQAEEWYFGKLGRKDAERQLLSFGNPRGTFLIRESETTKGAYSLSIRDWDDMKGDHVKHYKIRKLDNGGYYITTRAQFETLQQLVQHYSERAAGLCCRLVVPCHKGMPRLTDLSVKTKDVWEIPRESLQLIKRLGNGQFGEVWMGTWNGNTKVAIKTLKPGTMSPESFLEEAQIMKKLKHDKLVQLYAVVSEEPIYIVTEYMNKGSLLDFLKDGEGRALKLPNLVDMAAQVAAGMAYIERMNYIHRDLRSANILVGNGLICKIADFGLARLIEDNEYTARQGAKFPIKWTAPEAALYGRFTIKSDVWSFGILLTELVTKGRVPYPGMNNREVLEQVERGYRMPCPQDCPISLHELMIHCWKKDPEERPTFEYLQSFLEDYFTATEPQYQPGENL

[9] = biological target: Hck (UniProt P08631); assay: as above
Sequence of Hck (P08631 whole entry, looked up): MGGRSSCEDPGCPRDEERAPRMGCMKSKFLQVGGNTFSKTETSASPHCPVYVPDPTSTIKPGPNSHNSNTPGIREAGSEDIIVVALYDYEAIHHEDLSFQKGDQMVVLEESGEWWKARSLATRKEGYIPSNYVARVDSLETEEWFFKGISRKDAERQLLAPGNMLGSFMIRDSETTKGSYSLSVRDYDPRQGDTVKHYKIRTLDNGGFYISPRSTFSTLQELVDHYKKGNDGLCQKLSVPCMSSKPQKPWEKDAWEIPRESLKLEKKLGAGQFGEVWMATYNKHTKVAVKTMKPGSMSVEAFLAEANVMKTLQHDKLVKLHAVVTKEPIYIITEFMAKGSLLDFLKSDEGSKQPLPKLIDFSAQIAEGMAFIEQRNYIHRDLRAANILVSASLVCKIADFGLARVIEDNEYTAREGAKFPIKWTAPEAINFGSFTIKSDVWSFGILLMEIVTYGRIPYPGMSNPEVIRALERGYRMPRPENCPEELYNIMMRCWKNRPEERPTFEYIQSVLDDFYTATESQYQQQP

[10] = biological target: Jak2 (UniProt O60674); assay: as above
[11] = biological target: MERTK (UniProt Q12866); assay: as above
Sequence of MERTK (Q12866 whole entry, looked up): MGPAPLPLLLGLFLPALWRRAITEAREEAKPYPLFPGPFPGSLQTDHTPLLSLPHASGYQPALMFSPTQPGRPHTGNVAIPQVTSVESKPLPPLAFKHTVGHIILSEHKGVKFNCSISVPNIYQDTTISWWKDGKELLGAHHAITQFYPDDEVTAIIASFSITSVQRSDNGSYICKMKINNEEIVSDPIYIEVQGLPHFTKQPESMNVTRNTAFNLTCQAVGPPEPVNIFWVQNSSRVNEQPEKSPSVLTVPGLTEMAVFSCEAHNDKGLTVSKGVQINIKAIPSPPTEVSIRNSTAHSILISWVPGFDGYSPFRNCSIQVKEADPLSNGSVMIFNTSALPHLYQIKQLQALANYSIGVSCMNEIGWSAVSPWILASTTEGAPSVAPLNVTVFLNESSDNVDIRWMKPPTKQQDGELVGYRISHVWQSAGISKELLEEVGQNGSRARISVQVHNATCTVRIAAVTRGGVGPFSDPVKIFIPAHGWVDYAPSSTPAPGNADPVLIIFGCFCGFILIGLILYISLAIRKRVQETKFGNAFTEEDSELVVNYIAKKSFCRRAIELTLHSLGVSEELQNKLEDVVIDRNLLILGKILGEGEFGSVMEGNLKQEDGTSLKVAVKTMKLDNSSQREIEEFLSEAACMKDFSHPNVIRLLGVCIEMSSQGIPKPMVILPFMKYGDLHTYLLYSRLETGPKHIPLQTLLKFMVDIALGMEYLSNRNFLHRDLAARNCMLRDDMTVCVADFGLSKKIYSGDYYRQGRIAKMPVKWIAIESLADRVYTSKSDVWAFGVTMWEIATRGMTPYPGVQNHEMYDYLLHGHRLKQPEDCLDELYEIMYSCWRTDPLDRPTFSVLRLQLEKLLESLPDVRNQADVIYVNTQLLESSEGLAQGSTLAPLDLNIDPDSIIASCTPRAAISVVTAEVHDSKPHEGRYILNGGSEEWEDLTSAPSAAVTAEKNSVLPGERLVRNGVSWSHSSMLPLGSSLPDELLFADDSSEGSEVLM

[12] = system: c-Abl (mouse); assay: as above
[13] = system: c-Src; assay: as above
[14] = biological target: Grb2 SH2 (UniProt P62993); assay: SH2 binding enrichment of the phosphorylated peptide, bacterial display (enrichment ratio); higher = better substrate or ligand; peptides without Tyr show the background
[15] = biological target: SHP2-C SH2; assay: as above
[16] = biological target: c-Src SH2; assay: as above
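Wherever SH2 binding enrichment of the phosphorylated peptide, bacterial display is given: peptide library displayed on the E. coli surface as eCPX fusions, selected cells deep-sequenced, score is each peptide's frequency after selection divided by its frequency in the input.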
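Wherever phosphorylation enrichment, bacterial display is given: 11-residue human phosphosite peptides and single-mutation variants displayed on the E. coli surface, counted by deep sequencing, each peptide's frequency after selection divided by its frequency in the unselected input library; frequency after pTyr selection over input frequency; kinase dosed for 20-30% of maximal phosphorylation in three min.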

Sequence | SH2 binding enrichment [14] | SH2 binding enrichment [15] | SH2 binding enrichment [16] | phosphorylation enrichment [1] | phosphorylation enrichment [2] | phosphorylation enrichment [3] | phosphorylation enrichment [4] | phosphorylation enrichment [5] | phosphorylation enrichment [6] | phosphorylation enrichment [7] | phosphorylation enrichment [8] | phosphorylation enrichment [9] | phosphorylation enrichment [10] | phosphorylation enrichment [11] | phosphorylation enrichment [12] | phosphorylation enrichment [13]
KRAIGYFSATS [FAM120A_Y327_YF] | 1.02 | 0.851 | 0.553 | 0.543 | 0.345 | 0.426 | 0.381 | 0.467 | 0.327 | 0.612 | 0.382 | 0.492 | 0.612 | 0.362 | 0.362 | 0.364
RVKPIYFHTQG [AR_Y916_K911R] | 2.11 | 1.67 | 1.53 | 1.16 | 0.644 | 0.804 | 0.706 | 0.765 | 0.764 | 1.69 | 0.642 | 0.622 | 1.6 | 0.763 | 1.04 | 0.952
ALTDNYMFLVI [HAGH_Y61_YF] | 0.68 | 0.441 | 0.366 | 1.37 | 8.31 | 6.12 | 7.04 | 5.16 | 2.88 | 1.62 | 0.615 | 0.869 | 1.49 | 1.97 | 1.22 | 0.733
IGEGTYGVVFK [CDK2_Y15_YF] | 0.799 | 0.655 | 0.457 | 0.826 | 1.14 | 2.86 | 0.431 | 0.557 | 1.02 | 1.05 | 7.22 | 4.9 | 0.815 | 0.905 | 0.631 | 4.93
VLDSHYPEDEV [C1QBP_Y188_C186S] | 1.06 | 0.697 | 0.573 | 1.33 | 0.611 | 0.564 | 0.52 | 0.736 | 0.51 | 1.26 | 0.473 | 0.516 | 1.16 | 0.488 | 0.746 | 0.525

Further lines, with some results ahead:

SH2 binding enrichment [14] | SH2 binding enrichment [15] | SH2 binding enrichment [16] | Sequence | phosphorylation enrichment [1] | phosphorylation enrichment [2] | phosphorylation enrichment [3] | phosphorylation enrichment [4] | phosphorylation enrichment [5] | phosphorylation enrichment [6] | phosphorylation enrichment [7] | phosphorylation enrichment [8] | phosphorylation enrichment [9] | phosphorylation enrichment [10] | phosphorylation enrichment [11] | phosphorylation enrichment [12] | phosphorylation enrichment [13]
0.502 | 1.52 | 3.08 | PPGRSYSPYDY [TNS1_Y793] | 1.44 | 1.12 | 1.07 | 0.863 | 0.855 | 1.11 | 1.38 | 2.82 | 1.65 | 1.07 | 0.653 | 0.664 | 3.42
0.99 | 0.832 | 0.581 | HSDFQYSQRSQ [PKP2_Y168_YF] | 0.997 | 0.752 | 0.782 | 0.931 | 0.608 | 0.733 | 1.02 | 0.844 | 0.718 | 0.952 | 0.602 | 0.942 | 0.747
6.67 | 2.73 | 1.41 | ILGRTYYVNHE [NEDD4_Y627] | 0.928 | 0.607 | 0.539 | 0.485 | 0.682 | 0.507 | 0.941 | 0.368 | 0.632 | 0.705 | 0.368 | 0.725 | 0.68
